Reference: article PMC5656587, “Structure determination and activity manipulation of the turfgrass ABA receptor FePYR1” (Scientific Reports, 2017)
Residue numbers refer to the chain shown, from its start. In names and notes the source's numbering stands.

T1: FePYR1-ABA-AtHAB1 (Festuca elata, UniProt A0A2D1UXN2)
T1 construct: H6-SUMO-FePYR1 and biotin-MBP-AtHAB1 (172-511), E. coli; tags kept for AlphaScreen; with Protein phosphatase 2C 16 (HAB1, Arabidopsis thaliana)
T1 sequence (A0A2D1UXN2 1-212): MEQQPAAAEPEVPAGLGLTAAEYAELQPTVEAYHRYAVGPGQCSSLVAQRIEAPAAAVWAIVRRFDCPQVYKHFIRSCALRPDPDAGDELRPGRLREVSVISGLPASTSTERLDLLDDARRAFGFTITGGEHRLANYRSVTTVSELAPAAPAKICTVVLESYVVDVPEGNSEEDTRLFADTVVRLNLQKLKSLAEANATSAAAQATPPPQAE
T1 sequence (Q9CAJ0 172-511 partner): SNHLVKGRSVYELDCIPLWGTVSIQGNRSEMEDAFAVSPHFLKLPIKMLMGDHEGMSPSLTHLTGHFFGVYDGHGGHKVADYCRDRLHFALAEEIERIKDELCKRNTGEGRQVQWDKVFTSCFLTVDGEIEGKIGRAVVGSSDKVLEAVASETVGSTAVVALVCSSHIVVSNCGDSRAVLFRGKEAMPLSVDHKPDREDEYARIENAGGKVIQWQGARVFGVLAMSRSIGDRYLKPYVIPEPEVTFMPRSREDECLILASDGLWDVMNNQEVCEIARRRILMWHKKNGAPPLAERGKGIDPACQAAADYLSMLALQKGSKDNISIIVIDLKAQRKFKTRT

T2: AtPYR1 (Arabidopsis thaliana, UniProt O49686)
T2 construct: gene PYR1; homodimer
T2 sequence (O49686 9-182): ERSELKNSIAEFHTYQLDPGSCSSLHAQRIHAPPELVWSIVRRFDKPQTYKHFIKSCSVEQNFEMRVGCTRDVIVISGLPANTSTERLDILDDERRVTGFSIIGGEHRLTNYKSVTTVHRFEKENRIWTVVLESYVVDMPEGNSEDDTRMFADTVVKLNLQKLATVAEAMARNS

T3: ZjPYL2 with AtHAB1 (Zoysia japonica, UniProt A0A2D1UXP2)
T3 construct: H6-SUMO-ZjPYL2 and biotin-MBP-AtHAB1 (172-511), E. coli; tags kept; with Protein phosphatase 2C 16 (HAB1, Arabidopsis thaliana)
T3 sequence (A0A2D1UXP2 1-216): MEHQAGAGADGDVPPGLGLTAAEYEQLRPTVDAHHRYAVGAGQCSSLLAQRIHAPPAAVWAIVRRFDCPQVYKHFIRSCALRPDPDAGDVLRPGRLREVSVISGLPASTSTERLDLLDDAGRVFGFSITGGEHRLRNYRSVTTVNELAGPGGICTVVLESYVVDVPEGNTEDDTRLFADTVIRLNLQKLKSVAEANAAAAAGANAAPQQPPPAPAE
T3 sequence (Q9CAJ0 172-511 partner): T1 sequence (Q9CAJ0 172-511 partner)

T4: FePYL1 with AtHAB1 (Festuca elata, UniProt A0A2D1UXN6)
T4 construct: H6-SUMO-FePYL1 and biotin-MBP-AtHAB1 (172-511), E. coli; tags kept; with Protein phosphatase 2C 16 (HAB1, Arabidopsis thaliana)
T4 sequence (A0A2D1UXN6 1-204): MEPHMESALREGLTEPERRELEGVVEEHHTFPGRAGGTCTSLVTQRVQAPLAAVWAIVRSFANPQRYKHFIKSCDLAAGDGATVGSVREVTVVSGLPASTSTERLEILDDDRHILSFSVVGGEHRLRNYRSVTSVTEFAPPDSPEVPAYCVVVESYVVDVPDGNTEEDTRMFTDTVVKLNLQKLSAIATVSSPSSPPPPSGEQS
T4 sequence (Q9CAJ0 172-511 partner): T1 sequence (Q9CAJ0 172-511 partner)

T5: AtPYR1 with AtHAB1 (Arabidopsis thaliana, UniProt O49686)
T5 construct: gene PYR1; H6-SUMO-AtPYR1 (9-182) and biotin-MBP-AtHAB1 (172-511), E. coli; tags kept; with Protein phosphatase 2C 16
T5 sequence (O49686 9-182): T2 sequence (O49686 9-182)
T5 sequence (Q9CAJ0 172-511 partner): T1 sequence (Q9CAJ0 172-511 partner)

T6: biotin-MBP-tagged AtHAB1 (residues 172-511), Q9CAJ0
T6 chain: T1 sequence (Q9CAJ0 172-511 partner)

B1: AtPYR1 (size-exclusion chromatography, with or without ABA) (receptor, Arabidopsis, UniProt O49686 9-182, looked up)
chain: T2 sequence (O49686 9-182)
notes: Arabidopsis ABA receptor PYR1; also called AtPYR1-apo; source: E. coli, purified
B2: H6-SUMO-tagged FePYR1 E131A (protein)
chain: T1 sequence (A0A2D1UXN2 1-212) with E131A
B3: H6-SUMO-tagged FePYR1 F178A (protein)
chain: T1 sequence (A0A2D1UXN2 1-212) with F178A
B4: H6-SUMO-tagged FePYR1 A106S (protein)
chain: T1 sequence (A0A2D1UXN2 1-212) with A106S
B5: H6-SUMO-tagged FePYR1 I75V (protein)
chain: T1 sequence (A0A2D1UXN2 1-212) with I75V
B6: H6-SUMO-tagged FePYR1 E160A (protein)
chain: T1 sequence (A0A2D1UXN2 1-212) with E160A
B7: H6-SUMO-tagged FePYR1 L104A (protein)
chain: T1 sequence (A0A2D1UXN2 1-212) with L104A
B8: H6-SUMO-tagged FePYR1 K72A (protein)
chain: T1 sequence (A0A2D1UXN2 1-212) with K72A
B9: H6-SUMO-tagged FePYR1 I75A (protein)
chain: T1 sequence (A0A2D1UXN2 1-212) with I75A
B10: H6-SUMO-tagged FePYR1 E131D (protein)
chain: T1 sequence (A0A2D1UXN2 1-212) with E131D
B11: H6-SUMO-tagged FePYR1 V182L (protein)
chain: T1 sequence (A0A2D1UXN2 1-212) with V182L
B12: H6-SUMO-tagged FePYR1 H73P (protein)
chain: T1 sequence (A0A2D1UXN2 1-212) with H73P
B13: H6-SUMO-tagged FePYR1 I127A (protein)
chain: T1 sequence (A0A2D1UXN2 1-212) with I127A
B14: H6-SUMO-tagged FePYR1 K72R (protein)
chain: T1 sequence (A0A2D1UXN2 1-212) with K72R
B15: H6-SUMO-tagged FePYR1 E111A (protein)
chain: T1 sequence (A0A2D1UXN2 1-212) with E111A
B16: H6-SUMO-tagged FePYR1 S102A (protein)
chain: T1 sequence (A0A2D1UXN2 1-212) with S102A
B17: H6-SUMO-tagged FePYR1 L185A (protein)
chain: T1 sequence (A0A2D1UXN2 1-212) with L185A
B18: H6-SUMO-tagged FePYR1 P105A (protein)
chain: T1 sequence (A0A2D1UXN2 1-212) with P105A
B19: H6-SUMO-tagged FePYR1 R133A (protein)
chain: T1 sequence (A0A2D1UXN2 1-212) with R133A
B20: H6-SUMO-tagged FePYR1 H132A (protein)
chain: T1 sequence (A0A2D1UXN2 1-212) with H132A
B21: H6-SUMO-tagged FePYR1 G103A (protein)
chain: T1 sequence (A0A2D1UXN2 1-212) with G103A
B22: H6-SUMO-tagged FePYR1 N186A (protein)
chain: T1 sequence (A0A2D1UXN2 1-212) with N186A
B23: H6-SUMO-tagged FePYR1 I127V (protein)
chain: T1 sequence (A0A2D1UXN2 1-212) with I127V
B24: H6-SUMO-tagged FePYR1 L185C (protein)
chain: T1 sequence (A0A2D1UXN2 1-212) with L185C

Columns and labels:
FePYR1-ABA-AtHAB1 = biological target: T1, FePYR1-ABA-AtHAB1; assay: AlphaScreen, ABA-dependent receptor-PP2C interaction; format: binding
From the text: AlphaScreen, ABA-dependent receptor-PP2C interaction on FePYR1-ABA-AtHAB1 | EC50 values of FePYL1, FePYR1, ZjPYL2 in interacting with AtHAB1

AtPYR1 = biological target: T2, AtPYR1; assay: ABA binding assay in supplement (method not given); conditions: affinity reported comparable to FePYR1
ZjPYL2 with AtHAB1 = biological target: T3, ZjPYL2 with AtHAB1; assay: AlphaScreen, ABA-dependent receptor-PP2C interaction; format: binding
From the text: AlphaScreen, ABA-dependent receptor-PP2C interaction on ZjPYL2 with AtHAB1 | EC50 values of FePYL1, FePYR1, ZjPYL2 in interacting with AtHAB1

FePYL1 with AtHAB1 = biological target: T4, FePYL1 with AtHAB1; assay: as above; format: binding
From the text: AlphaScreen, ABA-dependent receptor-PP2C interaction on FePYL1 with AtHAB1 | EC50 values of FePYL1, FePYR1, ZjPYL2 in interacting with AtHAB1

AtPYR1 with AtHAB1 = biological target: T5, AtPYR1 with AtHAB1; assay: as above; format: binding
[1] = biological target: the molecule itself; assay: SEC; HPLC size-exclusion column chromatography with or without (+)-ABA; 43 kD protein marker
[2] = biological target: T6, biotin-MBP-tagged AtHAB1 (residues …); assay: AlphaScreen; conditions: chain shown with the change, read off a plot
[3] = ABA (10 μM), parent: est. 12000
[4] = ABA (100 μM), parent: est. 8400
[5] = DMSO (no ABA), parent: est. 2200

Row | Molecule | response (photon counts) [2, 4] | response (photon counts) ([2]; ABA (5 μM), parent: est. 17000) | response (photon counts) [2, 5] | also measured
1 | CC1=CC(=O)CC(C)(C)C1(O)/C=C/C(C)=C\C(=O)O (stereo in doubt) [(+)-ABA] |  |  |  | EC50 (FePYR1-ABA-AtHAB1): 2.3 µM; ABA binding assay in supplement (method not given) (AtPYR1): the binding affinity with ABA ... are comparable between these two ABA receptors; EC50 (ZjPYL2 with AtHAB1): 3.73 µM; EC50 (FePYL1 with AtHAB1): 0.671 µM; EC50 (AtPYR1 with AtHAB1): 7.36 µM
2 | B1 |  |  |  | stoichiometry N [1]: 2
3 | B2 | 7500 |  |  | response (photon counts) ([2]; ABA (2 μM), parent: est. 6900): 4100; response (photon counts) [2, 3]: 8000
4 | B3 | 2500 |  |  | 
5 | B4 | 2100 |  |  | 
6 | B5 |  | 16000 | 2100 | 
7 | B6 | 9000 |  |  | response (photon counts) ([2]; ABA (2 μM), parent: est. 6900): 2600; response (photon counts) [2, 3]: 4900
8 | B7 | 2500 |  |  | 
9 | B8 | 1200 |  |  | 
10 | B9 |  | 9600 | 2600 | 
11 | B10 |  | 18000 | 1900 | 
12 | B11 |  | 3300 | 2000 | 
13 | B12 |  | 15000 | 2000 | 
14 | B13 |  | 9500 | 2100 | 
15 | B14 | 1300 |  |  | 
16 | B15 | 800 |  |  | 
17 | B16 | 5800 |  |  | response (photon counts) ([2]; ABA (2 μM), parent: est. 6900): 750; response (photon counts) [2, 3]: 3000
18 | B17 |  | 18000 | 2300 | 
19 | B18 | 5700 |  |  | response (photon counts) ([2]; ABA (2 μM), parent: est. 6900): 1400; response (photon counts) [2, 3]: 3300
20 | B19 | 3900 |  |  | response (photon counts) ([2]; ABA (2 μM), parent: est. 6900): 600; response (photon counts) [2, 3]: 2300
21 | B20 | 650 |  |  | 
22 | B21 | 2800 |  |  | response (photon counts) ([2]; ABA (2 μM), parent: est. 6900): 700; response (photon counts) [2, 3]: 1800
23 | B22 | 5800 |  |  | response (photon counts) ([2]; ABA (2 μM), parent: est. 6900): 1200; response (photon counts) [2, 3]: 3900
24 | B23 |  | 17000 | 2200 | 
25 | B24 |  | 16000 | 2200 | 
